Data: patent US20140227295A1 (Bristol-Myers Squibb, published 2014)

Biological target: mesothelin (UniProt Q13421 37-598, limits assumed)
Assay: cell-based or functional assay

mesothelin, sequence (Q13421 other isoform, or with tags, fused parts or gaps limits assumed): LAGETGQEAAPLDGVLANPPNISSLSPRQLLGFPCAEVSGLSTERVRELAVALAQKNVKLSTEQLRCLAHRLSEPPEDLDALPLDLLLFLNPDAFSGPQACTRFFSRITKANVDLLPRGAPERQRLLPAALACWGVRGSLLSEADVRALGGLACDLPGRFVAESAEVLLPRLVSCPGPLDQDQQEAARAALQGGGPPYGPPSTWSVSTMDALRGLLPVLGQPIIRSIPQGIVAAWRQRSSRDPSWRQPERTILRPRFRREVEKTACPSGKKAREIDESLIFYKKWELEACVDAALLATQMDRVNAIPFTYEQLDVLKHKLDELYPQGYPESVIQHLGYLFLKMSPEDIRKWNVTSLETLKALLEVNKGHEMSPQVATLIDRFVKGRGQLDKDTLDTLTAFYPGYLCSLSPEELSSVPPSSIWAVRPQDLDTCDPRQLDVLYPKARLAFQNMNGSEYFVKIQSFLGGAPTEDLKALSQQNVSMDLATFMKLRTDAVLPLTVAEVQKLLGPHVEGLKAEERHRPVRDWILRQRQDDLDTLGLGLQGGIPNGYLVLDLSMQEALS

B1: conjugate (II-1), a conjugate of compound (III-1) and the anti-mesothelin antibody 6A4 (antibody, V domains shown)
VH: QVHLVESGGGVVQPGRSLRLSCVASGITFRIYGMHWVRQAPGKGLEWVAVLWYDGSHEYYADSVKGRFTISRDNSKNTLYLQMNSLRAEDTAIYYCARDGDYYDSGSPLDYWGQGTLVTVSS
VL: EIVLTQSPATLSLSPGERATLSCRASQSVSSYLAWYQQKPGQAPRLLIYDASNRATGIPARFSGSGSGTDFTLTISSLEPEDFAVYYCQQRSNWPLTFGGGTKVEIK
modifications: lysine ε-amino groups thiolated with 2-iminothiolane and linked to the maleimide of tubulysin drug-linker compound (III-1); sites and chain not stated
EC50, inhibition of proliferation of N87 gastric cancer cells (3H thymidine incorporation assay): 0.2 nM
